Results reported in the RNAGym collection of RNA variant scans (doi:10.7554/elife.90254).

B1: OR4K15 (parent)
chain: GUUAACGGUCAUAGGCCAUGGAAACUAGGAGCACCAUUUCGCUGCCAGUGAAGAAAUGAACAAAGAAAAUCUGGGCCAGGCAGGCAUCAAAAGAAAUAGUCUUGCGCUCAACCAGAAAGUCUGUAAUCAUUUUAAGGGUA

Variants of: B1
Assay: self-cleavage, relative activity (ratio to wild type); higher = more cleavage; in vitro, sequencing; the parent is a self-cleaving ribozyme

| Variant | self-cleavage |
| --- | --- |
| GUUAACGGUCAUUGGCCAUGGAAACUAGGAGCACCAUUUCGCUGCCAGUGAAGAAAUGAACAAAGAAAAUCUGGGCCAGGCAGGCAUCAAAAGAAAUAGUCUUGCGCUCAACCAGAAAGUCCGUAAUCAUUUUAAGGGUA | 0.56 |
| GUUAACGGUCAUUGGCCAUGGAAACUAGGAGCACCAUUUCGCUGCCAGUGAAGAAAUGAACAAAGAAAAUCUGGGCCAGGCAGGCAUCAAAAGAAAUAGUCUUGCGCUCAACCAGAAAGUCAGUAAUCAUUUUAAGGGUA | 1.5 |
| GUUAACGGUCAUAAGCCUUGGAAACUAGGAGCACCAUUUCGCUGCCAGUGAAGAAAUGAACAAAGAAAAUCUGGGCCAGGCAGGCAUCAAAAGAAAUAGUCUUGCGCUCAACCAGAAAGUCUGUAAUCAUUUUAAGGGUA | 0.99 |
| GUUAACGGUCAUUGGCCAUGGAAACUAGGAGCACCGUUUCGCUGCCAGUGAAGAAAUGAACAAAGAAAAUCUGGGCCAGGCAGGCAUCAAAAGAAAUAGUCUUGCGCUCAACCAGAAAGUCUGUAAUCAUUUUAAGGGUA | 0.89 |
| GUUAACGGUCAUUGGCCAUGGAAACUAGGAGCACCAUUUCGCUGCCAGUGAAGAAAUGAACUAAGAAAAUCUGGGCCAGGCAGGCAUCAAAAGAAAUAGUCUUGCGCUCAACCAGAAAGUCUGUAAUCAUUUUAAGGGUA | 1.05 |
| GUUAACGGUCAUUGGCCAUGGAAACUAGGAGCACCAUUUCGCUGCCAGUGAAGAAAUGAGCAAAGAAAAUCUGGGCCAGGCAGGCAUCAAAAGAAAUAGUCUUGCGCUCAACCAGAAAGUCUGUAAUCAUUUUAAGGGUA | 0.32 |
| GUUAACGGUCAUUGGCCAUGGAAACUAGGAGCACCAUUUCGCUGCCAGUGAAGAAAUGAACAAAGAACAUCUGGGCCAGGCAGGCAUCAAAAGAAAUAGUCUUGCGCUCAACCAGAAAGUCUGUAAUCAUUUUAAGGGUA | 1.86 |
| GUUAACGGUCAUUGGCCAUGGAAACUAGGAGCACCAUUUCGCUGCCAGUGAAGAAAUGAACAAAGAAAAUCUGGGCCAGGCAGGCAUCAAAAGAAAUAGUCUUGCGCUCAACCAGUAAGUCUGUAAUCAUUUUAAGGGUA | 0.25 |
| GUUAACGGUCAUUGGCCAUGGAAACUAGGAGCACCAUUUCGCCGCCAGUGAAGAAAUGAACAAAGAAAAUCUGGGCCAGGCAGGCAUCAAAAGAAAUAGUCUUGCGCUCAACCAGAAAGUCUGUAAUCAUUUUAAGGGUA | 1.24 |
| GUUAACGGUCAUUGGCCAUGGAAACUAGGAGCACCAUUUCGCUGCCAGUGAAGAAAUGAACAAAGAAAAUCUGGGCCAGGCAGGCAUCAAAAGAAAUAGUCUUGCGCUCAACCAGAAAGUCUGUUAUCAUUUUAAGGGUA | 1.71 |
| GUUAACGGUCAUUGGCCAUGGAAACUAGGAGCACCAUUUCGCUGCCAGUGAAGAAAUGAACAAAGAAAAUCUGGGCCAGGCAGGCAUCAAUAGAAAUAGUCUUGCGCUCAACCAGAAAGUCUGUAAUCAUUUUAAGGGUA | 1.34 |
| GUUAACGGUCAUUGGCCAUGGAAACUAGGAGCACCAUUUCGCUGCCAGUGAAGAAAUGAACAAGGAAAAUCUGGGCCAGGCAGGCAUCAAAAGAAAUAGUCUUGCGCUCAACCAGAAAGUCUGUAAUCAUUUUAAGGGUA | 1.04 |
| GUUAACGGUCAUUGGCCAUGGAAACUAGGAGCACCAUUUCGCUGCCAGUGAAGAGAUGAACAAAGAAAAUCUGGGCCAGGCAGGCAUCAAAAGAAAUAGUCUUGCGCUCAACCAGAAAGUCUGUAAUCAUUUUAAGGGUA | 0.85 |
| GUUAACGGUCAUUGGCCAUGGAAACUAGGAGCACCAUUUCGCUGCCAGUGAAGAAAUGAACAAAGAAAAUCUGGGCCAGGCAGGCAUCAAAAGAAGUAGUCUUGCGCUCAACCAGAAAGUCUGUAAUCAUUUUAAGGGUA | 1.14 |
| GUUAACGGUCAUGGGCCAUGGAAACUAGGAGCACCAUUUCGCUGCCAGUGAAGAAAUGAACAAAGAAAAUCUGGGCCAGGCAGGCAUCAAAAGAAAUAGUCUUGCGCUCAACCAGAAAGUCUGUAAUCAUUUUAAGGGCA | 1.13 |
| GUUAACGGUCAUUGGCCAUGGAAACUAGGAGCACCAUUUCGCUGCCAGUGAAGAAAUGAACAAAGAAAAUCUGGGCCAGGCAGGCAUCAUAAGAAAUAGUCUUGCGCUCAACCAGAAAGUCUGUAAUCAUUUUAAGGGUA | 1.8 |
| GUUAACGGUCAUUGGCCAUGGAAACUAGGAGCACCAUUUCGCUGCCAGUGAAGAAAUGAACAAAGAAAAUCUGGGCCAGGCAGGCAUCAAAAGGAAUAGUCUUGCGCUCAACCAGAAAGUCUGUAAUCAUUUUAAGGGUA | 0.55 |
| GUUAACGGUCAUUGGCCAUGGAAACUAGGAGCACCAUUUCGCUGCCAGUGAAGAAAUGAACAAAGAAAAUCUGGGCCAGGCAGGCGUCAAAAGAAAUAGUCUUGCGCUCAACCAGAAAGUCUGUAAUCAUUUUAAGGGUA | 1.62 |
| GUUAACGGUCAUUGGCCAUGGAAACUAGGAGCACCAUUUCGCUGCCAGUGAAGAAAUGAACAAAGAAAAUCUGGGCCAGGCAGGCAUCGAAAGAAAUAGUCUUGCGCUCAACCAGAAAGUCUGUAAUCAUUUUAAGGGUA | 1.51 |
| GUUAACGGUCAUUGGCCAUGGAAACUAGGAGCACCAUUUCGCUGCCAGUGAAGAAACGAACAAAGAAAAUCUGGGCCAGGCAGGCAUCAAAAGAAAUAGUCUUGCGCUCAACCAGAAAGUCUGUAAUCAUUUUAAGGGUA | 0.64 |
| GUUAACGGUCAUUGGCCAUGGAAACUAGGAGCACCAUUCCGCUGCCAGUGAAGAAAUGAACAAAGAAAAUCUGGGCCAGGCAGGCAUCAAAAGAAAUAGUCUUGCGCUCAACCAGAAAGUCUGUAAUCAUUUUAAGGGUA | 1.04 |

| Variant | self-cleavage |
| --- | --- |
| GUUAACGGUCAUUGGCCAUGGAAACUAGGAGCACCAUUUCGCUGCCAGUGAAGAAAUGAACAAAGUAAAUCUGGGCCAGGCAGGCAUCAAAAGAAAUAGUCUUGCGCUCAACCAGAAAGUCUGUAAUCAUUUUAAGGGUA | 1.15 |
| GUUAACGGUCAUUGGCCAUGGAAACUAGGAGCACCAUUUCGCUGCCAGUGAAGAAAUGAACAAAGAAAAUCCGGGCCAGGCAGGCAUCAAAAGAAAUAGUCUUGCGCUCAACCAGAAAGUCUGUAAUCAUUUUAAGGGUA | 0.49 |
| GUUAACGGUCAUUGGCCAUGGAAACUAGGAGCACCAUUUCGCUGCCAGUGAAGAAAUGAACAAAGAAAAUCUGGGCCGGGCAGGCAUCAAAAGAAAUAGUCUUGCGCUCAACCAGAAAGUCUGUAAUCAUUUUAAGGGUA | 0.2 |
| GUUAACGGUCAUUGGCCAUGGAAACUAGGAGCACCAUUUCGCUGCCAGUGAAGAAAUGAACAAAGAAAAUCUGGGCCAGGCAGGCAUCAAAAGAAAUAGUCUUGCGCUCAACCGGAAAGUCUGUAAUCAUUUUAAGGGUA | 0.09 |
| GUUAACGGUCAUUGGCCAUGGAAACUAGGAGCACCAUUUCGCUGCCAGUGAAGAAAUGAACAAAGAAAAUCUGGGCCAGGCAGGCAUCAAAAGAAAUAGUCUUGCGCUCAACCUGAAAGUCUGUAAUCAUUUUAAGGGUA | 0.07 |
| GUUAACGGUCAUUGGCCAUGGAAACUAGGAGCACCAUUUCGCUGCCAGUGAAGAAAUGAACAAAGAAAAUCUGGGCCAAGCAGGCAUCAAAAGAAAUAGUCUUGCGCUCAACCAGAAAGUCUGUAAUCAUUUUAAGGGUA | 0.19 |
| GUUAACGGUCAUUGGCCAUGGAAACUAGGAGCACCAUUUCGCUGCCAGUGAAGAAAUGAACAAAGAAAAUCUGGGCCAGGCAGGCAUCAAAAGAAAUAGUCCUGCGCUCAACCAGAAAGUCUGUAAUCAUUUUAAGGGUA | 1.56 |
| GUUAACGGUCAUUGGCCAUGGAAACUAGGAGCACCAUUUCGCUGCCAGUGAAGAAAUGAACAAAGAAAAUCUGGGCCAGGCAGGCAUCAAAAGAAAUAGUCUUGCGCUCAACCAGAAAGUCUGUAAUCACUUUAAGGGUA | 0.69 |
| GUUAACGGUCAUUGGCCAUGGAAACUAGGAGCACCAUUUCGCUGCCAGUGAAGAAGUGAACAAAGAAAAUCUGGGCCAGGCAGGCAUCAAAAGAAAUAGUCUUGCGCUCAACCAGAAAGUCUGUAAUCAUUUUAAGGGUA | 1.44 |
| GUUAACGGUCAUUGGCCAUGGAAACUAGGAGCACCAUUUCGCUGCCAGUGAAGAAAUGAACAGAGAAAAUCUGGGCCAGGCAGGCAUCAAAAGAAAUAGUCUUGCGCUCAACCAGAAAGUCUGUAAUCAUUUUAAGGGUA | 1.3 |
| GUUAACGGUCAUUGGCCAUGGAAACUAGGAGCACCAUUUCGCUGCCAGUGAAGAAAUGAACAUAGAAAAUCUGGGCCAGGCAGGCAUCAAAAGAAAUAGUCUUGCGCUCAACCAGAAAGUCUGUAAUCAUUUUAAGGGUA | 1.13 |
| GUUAACGGUCAUUGGCCAUGGAAACUAGGAGCACCAUUUCGCUGCCAGUGAUGAAAUGAACAAAGAAAAUCUGGGCCAGGCAGGCAUCAAAAGAAAUAGUCUUGCGCUCAACCAGAAAGUCUGUAAUCAUUUUAAGGGUA | 1.26 |
| GUUAACGGUCAUUGGCCAUGGAAACUAGGAGCACCAUUUCGCUGCCAGUGAGGAAAUGAACAAAGAAAAUCUGGGCCAGGCAGGCAUCAAAAGAAAUAGUCUUGCGCUCAACCAGAAAGUCUGUAAUCAUUUUAAGGGUA | 1.18 |
| GUUAACGGUCAUUGGCCAUGGAAACUAGGAGCACCAUUUCGCUGCCAGUGAAGAAAUGAACAAAGAAAAUCUGGGCCAGGCAGGCAUCAAAAGAAAUAGUCUUGCGCUCAACCAGAAAGUCUGCAAUCAUUUUAAGGGUA | 1.37 |
| GUUAACGGUCAUUGGCCAUGGAAACUAGGAGCACCAUUUCGCUGCCAGUGAAGAAAUGAACAAAGAAAAUCUGGGCCAGGCAGGCAUCAAAAGAAAUUGUCUUGCGCUCAACCAGAAAGUCUGUAAUCAUUUUAAGGGUA | 2.18 |
| GUUAACGGUCAUUGGCCAUGGAAACUAGGAGCACCAUUUCGCUGCCAGUGAAGAAAUGAACAAAGAAAAUCUGGGCCAGGCAGGCAACAAAAGAAAUAGUCUUGCGCUCAACCAGAAAGUCUGUAAUCAUUUUAAGGGUA | 1.61 |
| GUUAACGGUCAUUGGCCUUGGAAACUAGGAGCACCAUUUCGCUGCCAGUGAAGAAAUGAACAAAGAAAAUCUGGGCCAGGCAGGCAUCAAAAGAAAUAGUCUUGCGCUCAACCAGAAAGUCUGUAAUCAUUUUAAGGGUA | 0.56 |
| GUUAACGGUCAUUGGCCAUGGAAACUAGGAGCACCAUUUCGCUGCCAGUGAAGAAAUGAACAAAGAAAAUCUGGGCCAGGCAGGCAUCAAAAGAAAUAGUCUUGCGCUCAACCAGAAAGUCUGUAAUCGUUUUAAGGGUA | 1.57 |
| GUUAACGGUCAUUGGCCAUGGAAACUAGGAGCACCAUUUCGCUGCCGGUGAAGAAAUGAACAAAGAAAAUCUGGGCCAGGCAGGCAUCAAAAGAAAUAGUCUUGCGCUCAACCAGAAAGUCUGUAAUCAUUUUAAGGGUA | 0.93 |
| GUUAACGGUCAUUGGCCAUGGAAACUAGGAGCACCAUUUCGCUGCCAGUGAAGAAAUGAACAAAGAAAAUCUGGGCCAGGCGGGCAUCAAAAGAAAUAGUCUUGCGCUCAACCAGAAAGUCUGUAAUCAUUUUAAGGGUA | 0.84 |
